Consider 1 molecule from patent publication US20040110933A1.

Test [1] concerns the target biotinylated CD44Fc (human) (UniProt P16070). Briefly: competition phage ELISA on b-CD44Fc, competitor S5 (450 ng) pre-incubated. (In general: ELISA stands for enzyme-linked immunosorbent assay.)
The target is the same in test [2]. Briefly: phage ELISA on b-CD44Fc, no competitor.

B1: BE-A11 (Fab displayed on phage) (Fab, V domains shown)
VH: EVQLLESGGGLVQPGGSLRLSCAASGFTFSKYSMEWVRQAPGKGLEWVSRIYPSGGPTLYADSVKGRFTISRDNSKNTLYLQMNSLRAEDTAVYYCARDSYGMDVWGQGTTVTVSS
VL: QSVLTQPASVSGSPGQSITISCTGTSSDVGGYSYVSWYQQHPGKAPKLMIYEVSNRPSGVSNRFSGSKSGNTASLTISGLQAEDEADYYCNSYTSSSTKMFGGGTRLTVL
Consider B1, for which the phage ELISA signal (column CD44 + S5) in test [1] was found to be 0.261. For the same molecule, in test [2], the phage ELISA signal (column CD44) stood at 1.08.
